Test results: patent publication US20240101645A1 (HENRY M JACKSON FOUNDATION FOR THE ADVANCEMENT OF MILITARY …, published 2024)

Columns and labels:
[1] = biological target: T1, SARS-CoV-2 S on pseudovirions (Wuhan Hu-1 / IL1/2020, last 18 amino acids removed) (SARS-CoV-2, UniProt P0DTC2 14-1273); assay: cell-based or functional assay
[2] = biological target: T2, HCoV-OC43 spike antigens (bead panel) (HCoV-OC43, UniProt P36334 14-1297); assay: multiplex bead assay
T2 sequence: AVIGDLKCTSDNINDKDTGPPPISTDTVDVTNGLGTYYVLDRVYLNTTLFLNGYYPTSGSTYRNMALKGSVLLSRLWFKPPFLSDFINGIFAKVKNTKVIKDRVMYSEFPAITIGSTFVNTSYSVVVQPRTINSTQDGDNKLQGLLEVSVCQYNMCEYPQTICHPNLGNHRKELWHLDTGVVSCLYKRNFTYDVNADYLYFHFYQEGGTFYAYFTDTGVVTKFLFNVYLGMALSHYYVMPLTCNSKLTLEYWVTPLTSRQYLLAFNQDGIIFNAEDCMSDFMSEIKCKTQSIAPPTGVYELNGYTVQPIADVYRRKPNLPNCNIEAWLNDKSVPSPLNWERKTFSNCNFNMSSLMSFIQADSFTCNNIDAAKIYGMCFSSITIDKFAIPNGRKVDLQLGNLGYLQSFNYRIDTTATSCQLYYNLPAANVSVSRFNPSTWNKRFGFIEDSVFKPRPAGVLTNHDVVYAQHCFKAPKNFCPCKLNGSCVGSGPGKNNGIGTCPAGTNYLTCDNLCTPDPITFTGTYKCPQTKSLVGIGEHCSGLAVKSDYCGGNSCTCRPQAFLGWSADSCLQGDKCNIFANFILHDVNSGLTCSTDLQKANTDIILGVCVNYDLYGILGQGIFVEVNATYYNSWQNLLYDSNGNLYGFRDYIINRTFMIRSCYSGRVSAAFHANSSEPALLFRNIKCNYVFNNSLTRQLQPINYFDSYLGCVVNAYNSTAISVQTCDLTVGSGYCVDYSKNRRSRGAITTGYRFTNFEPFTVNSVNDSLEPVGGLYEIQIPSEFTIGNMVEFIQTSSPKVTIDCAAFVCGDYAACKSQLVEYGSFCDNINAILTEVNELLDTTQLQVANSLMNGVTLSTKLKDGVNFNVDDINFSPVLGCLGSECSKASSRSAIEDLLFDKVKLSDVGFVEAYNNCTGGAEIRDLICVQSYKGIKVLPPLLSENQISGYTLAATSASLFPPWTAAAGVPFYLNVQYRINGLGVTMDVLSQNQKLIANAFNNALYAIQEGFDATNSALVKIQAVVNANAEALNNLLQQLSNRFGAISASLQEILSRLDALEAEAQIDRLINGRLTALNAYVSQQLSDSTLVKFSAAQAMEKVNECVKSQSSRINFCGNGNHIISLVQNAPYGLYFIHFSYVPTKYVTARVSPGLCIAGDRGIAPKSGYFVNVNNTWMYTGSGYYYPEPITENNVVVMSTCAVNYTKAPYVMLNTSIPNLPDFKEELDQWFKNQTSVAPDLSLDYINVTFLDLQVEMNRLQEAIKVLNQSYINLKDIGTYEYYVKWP

[3] = biological target: T1, SARS-CoV-2 S on pseudovirions (Wuhan …); assay: cell-based or functional assay; remark: listed apart in the source
[4] = biological target: T3, HCoV-229E spike antigens (bead panel) (HCoV-229E, UniProt P15423 16-1115); assay: multiplex bead assay
T3 sequence: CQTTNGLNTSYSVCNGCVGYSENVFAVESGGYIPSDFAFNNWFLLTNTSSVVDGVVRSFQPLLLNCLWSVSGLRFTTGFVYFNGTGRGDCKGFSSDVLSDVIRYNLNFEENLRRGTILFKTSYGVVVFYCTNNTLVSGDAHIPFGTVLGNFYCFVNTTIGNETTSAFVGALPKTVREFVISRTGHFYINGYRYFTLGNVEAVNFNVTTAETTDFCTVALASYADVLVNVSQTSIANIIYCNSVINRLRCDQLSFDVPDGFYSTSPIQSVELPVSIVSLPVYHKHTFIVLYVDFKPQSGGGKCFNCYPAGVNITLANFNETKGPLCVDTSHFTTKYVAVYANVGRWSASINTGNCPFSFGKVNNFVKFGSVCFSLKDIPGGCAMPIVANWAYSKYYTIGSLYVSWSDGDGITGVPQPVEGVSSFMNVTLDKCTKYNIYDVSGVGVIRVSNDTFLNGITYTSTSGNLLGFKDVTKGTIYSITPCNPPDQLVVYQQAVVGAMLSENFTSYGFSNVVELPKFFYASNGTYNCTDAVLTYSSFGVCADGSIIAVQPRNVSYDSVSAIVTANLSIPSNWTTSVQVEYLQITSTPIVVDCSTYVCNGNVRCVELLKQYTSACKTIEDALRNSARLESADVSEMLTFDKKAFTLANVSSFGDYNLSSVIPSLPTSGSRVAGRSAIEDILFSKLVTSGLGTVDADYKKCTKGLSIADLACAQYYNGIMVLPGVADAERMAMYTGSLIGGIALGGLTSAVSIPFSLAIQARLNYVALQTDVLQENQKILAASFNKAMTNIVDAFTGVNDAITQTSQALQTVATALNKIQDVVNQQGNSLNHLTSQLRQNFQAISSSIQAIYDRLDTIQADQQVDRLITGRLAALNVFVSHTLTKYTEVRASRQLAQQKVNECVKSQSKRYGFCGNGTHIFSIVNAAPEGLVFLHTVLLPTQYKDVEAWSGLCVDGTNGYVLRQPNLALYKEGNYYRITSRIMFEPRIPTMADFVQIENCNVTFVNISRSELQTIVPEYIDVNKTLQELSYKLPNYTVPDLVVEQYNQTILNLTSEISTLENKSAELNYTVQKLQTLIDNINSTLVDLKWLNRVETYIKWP

[5] = biological target: T4, MERS-CoV spike antigens (bead panel) (MERS-CoV, UniProt K9N5Q8 18-1296); assay: multiplex bead assay
T4 sequence: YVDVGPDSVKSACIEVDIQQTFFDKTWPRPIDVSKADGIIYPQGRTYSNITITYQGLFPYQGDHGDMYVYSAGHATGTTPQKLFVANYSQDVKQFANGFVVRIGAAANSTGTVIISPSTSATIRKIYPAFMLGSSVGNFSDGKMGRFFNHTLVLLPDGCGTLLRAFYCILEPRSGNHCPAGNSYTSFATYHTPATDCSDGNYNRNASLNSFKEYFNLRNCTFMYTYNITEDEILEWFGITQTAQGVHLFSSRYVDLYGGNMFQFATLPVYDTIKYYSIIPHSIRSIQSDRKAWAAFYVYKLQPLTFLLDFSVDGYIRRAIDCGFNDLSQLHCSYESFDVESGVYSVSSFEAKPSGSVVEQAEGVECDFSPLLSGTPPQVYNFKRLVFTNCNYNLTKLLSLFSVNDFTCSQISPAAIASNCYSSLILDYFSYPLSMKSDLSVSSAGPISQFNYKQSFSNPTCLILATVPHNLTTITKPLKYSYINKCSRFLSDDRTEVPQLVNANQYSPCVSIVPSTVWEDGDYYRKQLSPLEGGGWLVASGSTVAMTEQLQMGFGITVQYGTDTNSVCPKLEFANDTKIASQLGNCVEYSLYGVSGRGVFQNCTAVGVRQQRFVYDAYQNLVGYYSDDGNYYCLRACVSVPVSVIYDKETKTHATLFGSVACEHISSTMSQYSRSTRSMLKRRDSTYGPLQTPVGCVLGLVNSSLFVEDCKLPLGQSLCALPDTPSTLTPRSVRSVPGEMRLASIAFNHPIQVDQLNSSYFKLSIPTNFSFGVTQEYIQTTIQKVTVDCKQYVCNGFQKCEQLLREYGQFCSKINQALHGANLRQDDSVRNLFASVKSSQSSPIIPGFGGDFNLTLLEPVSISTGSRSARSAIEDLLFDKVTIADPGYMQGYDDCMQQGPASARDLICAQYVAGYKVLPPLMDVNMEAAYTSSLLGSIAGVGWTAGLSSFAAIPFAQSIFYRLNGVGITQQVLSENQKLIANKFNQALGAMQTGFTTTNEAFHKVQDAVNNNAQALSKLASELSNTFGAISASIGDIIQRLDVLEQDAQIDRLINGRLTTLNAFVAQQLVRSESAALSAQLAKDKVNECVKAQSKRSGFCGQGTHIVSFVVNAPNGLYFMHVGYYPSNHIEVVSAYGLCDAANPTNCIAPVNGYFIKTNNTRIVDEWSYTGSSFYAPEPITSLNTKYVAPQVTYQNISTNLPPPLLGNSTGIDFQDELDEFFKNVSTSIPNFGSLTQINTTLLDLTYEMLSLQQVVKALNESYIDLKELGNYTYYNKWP

[6] = biological target: T5, HCoV-HKU1 spike antigens (bead panel) (HCoV-HKU1, UniProt Q5MQD0 13-1300); assay: multiplex bead assay
T5 sequence: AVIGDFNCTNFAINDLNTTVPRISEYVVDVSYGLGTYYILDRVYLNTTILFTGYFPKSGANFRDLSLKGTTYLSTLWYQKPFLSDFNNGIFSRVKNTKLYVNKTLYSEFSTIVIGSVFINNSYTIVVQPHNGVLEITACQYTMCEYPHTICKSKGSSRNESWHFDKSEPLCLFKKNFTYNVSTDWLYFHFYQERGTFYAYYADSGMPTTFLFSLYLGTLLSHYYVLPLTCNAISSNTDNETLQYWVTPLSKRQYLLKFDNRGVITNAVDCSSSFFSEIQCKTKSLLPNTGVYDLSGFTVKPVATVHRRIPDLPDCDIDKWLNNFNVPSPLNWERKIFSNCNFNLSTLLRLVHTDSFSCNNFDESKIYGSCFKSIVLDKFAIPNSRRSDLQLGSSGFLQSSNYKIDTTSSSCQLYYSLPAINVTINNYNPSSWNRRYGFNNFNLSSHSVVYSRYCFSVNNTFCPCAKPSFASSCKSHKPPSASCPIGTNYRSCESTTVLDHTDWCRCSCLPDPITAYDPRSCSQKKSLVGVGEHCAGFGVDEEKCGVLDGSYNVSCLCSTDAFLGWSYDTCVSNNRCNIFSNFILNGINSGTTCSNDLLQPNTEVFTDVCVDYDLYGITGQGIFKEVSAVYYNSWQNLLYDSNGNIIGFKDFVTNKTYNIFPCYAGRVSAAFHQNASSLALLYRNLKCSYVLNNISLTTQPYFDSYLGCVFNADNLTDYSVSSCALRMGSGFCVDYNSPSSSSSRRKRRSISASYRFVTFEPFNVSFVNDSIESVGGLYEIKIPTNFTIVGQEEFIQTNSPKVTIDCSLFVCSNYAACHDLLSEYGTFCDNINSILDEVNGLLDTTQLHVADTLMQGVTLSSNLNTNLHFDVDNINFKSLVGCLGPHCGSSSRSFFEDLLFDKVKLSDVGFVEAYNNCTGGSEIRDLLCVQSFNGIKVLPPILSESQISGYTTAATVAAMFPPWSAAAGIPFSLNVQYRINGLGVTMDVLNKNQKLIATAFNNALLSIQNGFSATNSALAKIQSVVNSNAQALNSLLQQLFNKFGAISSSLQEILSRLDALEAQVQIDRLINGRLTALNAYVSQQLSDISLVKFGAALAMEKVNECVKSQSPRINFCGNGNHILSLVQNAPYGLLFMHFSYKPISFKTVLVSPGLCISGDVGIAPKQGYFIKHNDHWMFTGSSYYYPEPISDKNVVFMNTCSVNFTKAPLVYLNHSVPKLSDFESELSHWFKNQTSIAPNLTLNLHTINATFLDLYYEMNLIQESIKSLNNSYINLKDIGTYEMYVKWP

[7] = biological target: SARS-CoV-1 spike antigens (bead panel) (SARS-CoV-1, UniProt P59594 14-1195); assay: multiplex bead assay

| Binder | Mean IC80, pSV neutralization [1] [µg/ml] | binding result [2] | IC50, pseudotyped neutralization assay [3] [ng/mL] | binding result [4] | binding result [5] | binding result [6] | binding result [7] | Mean IC50, pSV neutralization [1] [µg/ml] |
| --- | --- | --- | --- | --- | --- | --- | --- | --- |
| COV_2173 (antibody, V domains shown, human IgG1) VH: QVQLQESGPGLVKPSETLSLTCSVSGDSISSSDYSWGWIRQPPGKGLEWIGTIYYIKNTYYNPSLRSRVTLSVDTSKNLFSLKLSSVTAADTAVYYCARERPPFDVVVVPAARPYNWFDPWGLGTLVIVSS VL: QSVLMQPPSVSGAPGQRVTISCTGSSSNIGAGYDVHWYQQLPGTAPKLLIYGNNNRPSGVPDRFSGSKSGTSASLAITGLQADDEADYYCQSYDSSLSGSKVFGGGTKLTVL | 0.01 | no binding | 4 | – | – | – | – | – |
| COV_3103 (antibody, V domains shown, human IgG1) VH: EVQLVESGGGLVQPGRSLRLSCVASGFIVENFAMHWVRQAPGKGLEWVSGITWNSASTGYVESVKGRFSISRDNGENSMFLEMNSLRPDDTALYYCVKATGSYWGFPMDVWGQGTTVTVSS VL: EIVLTQSPGTLSLSPGEGGTLSCRASQSVRSNYLAWYQRKPGQAPRLLIYATSNRATGIPDRFSGSGSGTDFTLTISRLEPEDFAVYFCQHYGDSPYTFGQGTKLEIKR | – | – | – | no binding | no binding | no binding | no binding | – |
| COV_2165 (antibody, V domains shown, human IgG1) VH: EVQLVESGGGLVQPGGSLRLSCAASGFTFSSYSMNWVRQAPGKGLEWVSYISSSSSTIYYADYVKGRFTISRDNAKNSLYLQMNSLRAEDRAVYYCARVARRDVAPATIAAYFLDYWGQGTLVTVSS VL: EIVLTQSPATLSLSPGERATLSCRASQSLSSYLAWYQQKPGQAPRLLIYDASTRATGIPARFSGSGSGTDFTLTISSLEPEDFAVYYCQQRSTWPRGFTFGPGTKVDIK | 0.04 | no binding | 10 | – | – | – | no binding | 0.02 |
